Where “and” joins values, the source holds several entries; their conditions need not be identical. Equal values may be shown once.
T1: human C4b (human) (UniProt P0C0L4)
T1 sequence: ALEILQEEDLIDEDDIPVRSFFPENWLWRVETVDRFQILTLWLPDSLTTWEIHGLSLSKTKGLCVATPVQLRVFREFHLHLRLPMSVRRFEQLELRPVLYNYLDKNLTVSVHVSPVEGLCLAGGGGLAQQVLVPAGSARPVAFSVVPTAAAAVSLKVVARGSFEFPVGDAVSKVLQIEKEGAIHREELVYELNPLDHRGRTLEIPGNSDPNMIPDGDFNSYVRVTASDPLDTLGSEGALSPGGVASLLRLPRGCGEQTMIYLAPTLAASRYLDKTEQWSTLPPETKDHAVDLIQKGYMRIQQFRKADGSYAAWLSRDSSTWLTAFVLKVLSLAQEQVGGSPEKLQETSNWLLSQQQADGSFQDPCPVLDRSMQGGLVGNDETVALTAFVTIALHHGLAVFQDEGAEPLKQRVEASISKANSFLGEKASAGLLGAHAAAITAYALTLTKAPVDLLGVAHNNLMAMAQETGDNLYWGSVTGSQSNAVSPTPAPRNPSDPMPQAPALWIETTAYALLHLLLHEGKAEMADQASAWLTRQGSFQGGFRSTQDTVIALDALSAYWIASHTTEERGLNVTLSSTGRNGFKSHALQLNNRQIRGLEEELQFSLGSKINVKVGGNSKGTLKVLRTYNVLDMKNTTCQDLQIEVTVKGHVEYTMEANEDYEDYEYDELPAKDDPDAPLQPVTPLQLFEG

T2: human C4b (human) (UniProt P0C0L5)
T2 sequence: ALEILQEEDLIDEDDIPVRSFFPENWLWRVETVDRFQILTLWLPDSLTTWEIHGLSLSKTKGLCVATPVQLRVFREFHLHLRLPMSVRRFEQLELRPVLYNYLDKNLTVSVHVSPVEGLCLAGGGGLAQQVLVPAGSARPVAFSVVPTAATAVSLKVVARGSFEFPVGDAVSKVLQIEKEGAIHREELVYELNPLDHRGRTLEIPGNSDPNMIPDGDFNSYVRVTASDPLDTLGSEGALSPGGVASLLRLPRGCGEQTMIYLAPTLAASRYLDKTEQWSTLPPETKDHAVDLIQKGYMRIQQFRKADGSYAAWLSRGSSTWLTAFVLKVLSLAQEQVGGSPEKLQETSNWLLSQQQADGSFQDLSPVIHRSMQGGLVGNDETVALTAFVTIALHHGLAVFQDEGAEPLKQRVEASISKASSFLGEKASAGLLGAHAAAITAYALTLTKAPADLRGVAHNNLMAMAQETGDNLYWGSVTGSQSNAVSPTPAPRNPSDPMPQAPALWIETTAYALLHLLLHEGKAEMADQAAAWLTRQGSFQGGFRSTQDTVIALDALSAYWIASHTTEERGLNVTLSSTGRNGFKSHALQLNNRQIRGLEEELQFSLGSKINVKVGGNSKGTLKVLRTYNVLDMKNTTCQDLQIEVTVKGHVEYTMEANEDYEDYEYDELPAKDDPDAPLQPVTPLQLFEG

B1: WT mouse CFI; His tag (enzyme)
chain: RSPSASDLPQEELVDQKCLLQKYTHRSCNKVFCQPWQRCIEGTCICKLPYQCPRAGTPVCAMNGRSYPTYCHQKSFECLHPEIKFSHNGTCAAEGKFNVSLIYGRTKTEGLVQVKLVDQDERMFICKNSWSMAEANVACVDLGFPLGVRDIQGSFNISGNLHINDTECLHVHCRGVETSLAECAFTKRRTELSNGLAGVVCYKQDADFPTSLSFQCVNGKHIPQEKACNGVNDCGDQSDELCCKGCRGNASLCKSGVCIPDQYKCNGEVDCITGEDESRCEEDRQQNIPKGLARSAQGEAEIETEETEMLTPGMDNERKRIKSLLPKLSCGVKRNTHTRRKRVIGGKPANVGDYPWQVAIKDGQRITCGGIYIGGCWILTAAHCVRPSRAHSYQVWTALLDWLKPNSQLGIQTVKRVIVHEKYNGATFQNDIALIEMKMHTGKKECELPNSVPACVPWSPYLFQPNDRCIISGWGRGKDNQKVYSLRWGEVDLIGNCSQFYPDRYYEKEMQCAGTRDGSIDACKGDSGGPLVCEDINNVTYVWGIVSWGENCGKPEFPGVYTRVANYFDWISYHVGRSLVSQHNV

Columns and labels:
human C4b (human) [1] = target: T1, human C4b (human)
human C4b (human) [2] = target: T2, human C4b (human)
[3] = target: soluble human C3b (human) (UniProt P01024)
human C4b (human) [4] = target: T1, human C4b (human); remark: listed apart in the source

| Molecule | iC3b Screen Ref Fold (fold of CFI-HSA wild type) [3] | C4b Screen Ref Fold (fold of CFI-HSA wild type) (human C4b (human) [4]) | further results |
| --- | --- | --- | --- |
| CFI-HSA variant N531G; R462K; F464Y (enzyme) | – | – | C4c EC50 (human C4b (human) [1]): 54.8 nM |
| CFI-HSA variant E457G; E461Q; R462K (enzyme) | – | – | C4c EC50 (human C4b (human) [1]): 60.2 nM |
| CFI-HSA variant Y408L; D425R; E530Y (enzyme) | – | – | C4c EC50 (nM) (human C4b (human) [1]): 900 nM |
| CFI-HSA variant Y408L; E457G; N531G; D425R; E530Y (enzyme) | – | – | C4c EC50 (nM) (human C4b (human) [1]): 92.9 nM |
| CFI-HSA variant F464L (enzyme) | – | – | C4c EC50 (human C4b (human) [1]): > 1000 nM |
| CFI-HSA variant Y408L; N531G; D425R; E530Y (enzyme) | – | – | C4c EC50 (nM) (human C4b (human) [1]): 41.2 nM |
| CFI-HSA variant Y408L; N531G; E461Q; R462K (enzyme) | – | – | C4c EC50 (human C4b (human) [1]): 24.5 nM |
| CFI-HSA variant Y408L; E530R; N531G (enzyme) | – | – | C4c EC50 (human C4b (human) [1]): 229 nM |
| CFI-HSA variant E457G; P535G; WT; GGSSGG (SEQ ID NO: 6); CR1(ccp15-17) (enzyme) | – | – | C4c EC50 (human C4b (human) [1]): 57.5 nM |
| CFI-HSA variant Y553K (enzyme) | – | – | C4c EC50 (nM) (human C4b (human) [1]): 198 nM |
| CFI-HSA variant K14A; D425R; Y408L-N531G (enzyme) | – | – | C4c EC50 (human C4b (human) [1]): 58.1 nM |
| CFI-HSA variant Y408L; E457G; R462K; F464Y (enzyme) | – | – | C4c EC50 (human C4b (human) [1]): 156 nM |
| CFI-HSA variant P384G (enzyme) | – | – | C4b Screen Ref Fold (fold vs CFI-HSA wild type) (human C4b (human) [2]): 0.04; iC3b Screen Ref Fold (fold of reference) [3]: 0.01; iC3b Screen Ref Fold (fold vs CFI-HSA wild type) [3]: 0.03; C4b Screen Ref Fold (fold of reference) (human C4b (human) [4]): 0.1 |
| CFI-HSA variant K504E (enzyme) | – | – | C4b Screen Ref Fold (fold vs CFI-HSA wild type) (human C4b (human) [2]): 0.24; iC3b Screen Ref Fold (fold of reference) [3]: 0.12; iC3b Screen Ref Fold (fold vs CFI-HSA wild type) [3]: 0.88; C4b Screen Ref Fold (fold of reference) (human C4b (human) [4]): 0.24 |
| CFI-HSA P535D (enzyme) | 0.01 | 0.14 | – |
| CFI-HSA variant G406D; P535A (enzyme) | – | – | iC3b Screen Ref Fold (fold of reference) [3]: 0.13; C4b Screen Ref Fold (fold of reference) (human C4b (human) [4]): 0.95 |
| CFI-HSA variant A405S; G406R; Y408L; Q409D (enzyme) | – | – | iC3b Screen Ref Fold (fold of reference) [3]: 0.13; C4b Screen Ref Fold (fold of reference) (human C4b (human) [4]): -0.08 |
| CFI-HSA D425V (enzyme) | 0.98 | 2.51 | – |
| CFI-HSA P535E (enzyme) | 0.24 | 0.45 | – |
| CFI-HSA variant N531I (enzyme) | – | – | iC3b Screen Ref Fold (fold of reference) [3]: 0.24; C4b Screen Ref Fold (fold of reference) (human C4b (human) [4]): 0.36 |
| CFI-HSA variant N531W (enzyme) | – | – | iC3b Screen Ref Fold (fold of reference) [3]: 0.29; C4b Screen Ref Fold (fold of reference) (human C4b (human) [4]): 0.95 |
| CFI-HSA variant N531V (enzyme) | – | – | iC3b Screen Ref Fold (fold of reference) [3]: 0.57; C4b Screen Ref Fold (fold of reference) (human C4b (human) [4]): 0.75 |
| CFI-HSA N531G; E461Q; R462K (enzyme) | 2.21 | 6.42 | – |
| CFI-HSA Y408L; E457G; R462K (enzyme) | 1.02 | 5.24 | – |
| CFI-HSA D425W (enzyme) | 1.59 | 0.89 | – |
| CFI-HSA variant W381G; P384A; V390G (enzyme) | – | – | iC3b Screen Ref Fold (fold of reference) [3]: -0.01; C4b Screen Ref Fold (fold of reference) (human C4b (human) [4]): 0.26 |
| CFI-HSA variant E530F; P558S (enzyme) | 1.4 and 1.38 | 0.34 and 0.16 | – |
| CFI-HSA Y408L; E457G; E461Q (enzyme) | 1.18 | 6.36 | – |

| Molecule | iC3b Screen Ref Fold (fold of CFI-HSA wild type) [3] | C4b Screen Ref Fold (fold of CFI-HSA wild type) (human C4b (human) [4]) | further results |
| --- | --- | --- | --- |
| CFI-HSA Y408L; N531G; E457G; R462K (enzyme) | 1.29 | 6.12 | – |
| CFI-HSA R462K; F464Y (enzyme) | 0.11 | 0.83 | – |
| CFI-HSA K534V (enzyme) | 1.49 | 1.96 | – |
| CFI-HSA F208Y; F246Y; F480Y; F537Y (enzyme) | 1.45 | 0.42 | – |
| CFI-HSA variant D425K; Y408M; E530F; F537K (enzyme) | 0.07 | 0.03 | – |
| CFI-HSA variant I345G (enzyme) | – | – | iC3b Screen Ref Fold (fold of reference) [3]: -0.01; C4b Screen Ref Fold (fold of reference) (human C4b (human) [4]): 0.16 |
| CFI-HSA F246Y (enzyme) | 1.56 | 0.48 | – |
| CFI-HSA N531G; E457G; F464Y (enzyme) | 1.24 | 6.55 | – |
| CFI-HSA variant Q409G (enzyme) | – | – | iC3b Screen Ref Fold (fold of reference) [3]: 0.33; C4b Screen Ref Fold (fold of reference) (human C4b (human) [4]): 0.36 |
| CFI-HSA variant Y408F; K504Y (enzyme) | 0.97 | 1.67 | – |
| CFI-HSA T407G; E457G (enzyme) | 0.89 | 0.42 | – |
| CFI-HSA Y408L; E457G; E461Q; F464Y (enzyme) | 1.45 | 5.88 | – |
| CFI-HSA variant G406D; Y408L; P535A (enzyme) | – | – | iC3b Screen Ref Fold (fold of reference) [3]: 0.23; C4b Screen Ref Fold (fold of reference) (human C4b (human) [4]): 0.38 |
| CFI-HSA variant A405S; G406A; Y408L; Q409D (enzyme) | – | – | iC3b Screen Ref Fold (fold of reference) [3]: 0.06; C4b Screen Ref Fold (fold of reference) (human C4b (human) [4]): 0.11 |
| CFI-HSA T407G; Y408L; E457G; N531G (enzyme) | 0.56 | 0.67 | – |
| CFI-HSA Y408L; N531G; E457G; F464Y (enzyme) | 0.84 | 6.45 | – |
| CFI-HSA variant E530F; K504R (enzyme) | 1.14 | 0.05 | – |
| CFI-HSA N531G; F464Y (enzyme) | 1.47 | 6.48 | – |
| CFI-HSA P535L (enzyme) | 0.53 | 0.27 | – |
| CFI-HSA variant Y408M; S507A (enzyme) | -0.04 | -0.02 | – |
| CFI-HSA E461Q; R462K (enzyme) | 1.23 | 4.69 | – |
| CFI-HSA K534P (enzyme) | 0 | 0.11 | – |
| CFI-HSA variant G344R; Y408L; N531G (enzyme) | – | – | iC3b Screen Ref Fold (fold of reference) [3]: 0.98; C4b Screen Ref Fold (fold of reference) (human C4b (human) [4]): 3.03 |
| CFI-HSA variant D425K; Y408M; F537K; K504R; P558S (enzyme) | 1.49 | 0.08 | – |
| CFI-HSA variant G344Y (enzyme) | – | – | iC3b Screen Ref Fold (fold of reference) [3]: 0.43; C4b Screen Ref Fold (fold of reference) (human C4b (human) [4]): 1.93 |
| CFI-HSA D425I (enzyme) | 1.86 | 1.38 | – |
| B1 | 0.03 | -0.08 | – |

From patent US20230038638A1, “COMPLEMENT FACTOR I-RELATED COMPOSITIONS AND METHODS” (published 2023)
